These results are taken from patent publication US20210130436A1.

First the molecules themselves.
T1: CD112R, Q6DKI7
T1 chain: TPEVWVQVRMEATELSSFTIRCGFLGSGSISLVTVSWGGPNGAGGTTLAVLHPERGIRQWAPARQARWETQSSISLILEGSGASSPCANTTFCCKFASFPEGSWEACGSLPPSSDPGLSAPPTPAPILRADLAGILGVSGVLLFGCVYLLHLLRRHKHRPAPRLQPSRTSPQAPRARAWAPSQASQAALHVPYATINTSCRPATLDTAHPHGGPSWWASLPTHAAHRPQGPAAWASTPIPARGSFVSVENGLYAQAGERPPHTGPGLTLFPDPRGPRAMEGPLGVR

T2: CD226 (Homo sapiens (Human)) (UniProt Q15762)
T2 sequence: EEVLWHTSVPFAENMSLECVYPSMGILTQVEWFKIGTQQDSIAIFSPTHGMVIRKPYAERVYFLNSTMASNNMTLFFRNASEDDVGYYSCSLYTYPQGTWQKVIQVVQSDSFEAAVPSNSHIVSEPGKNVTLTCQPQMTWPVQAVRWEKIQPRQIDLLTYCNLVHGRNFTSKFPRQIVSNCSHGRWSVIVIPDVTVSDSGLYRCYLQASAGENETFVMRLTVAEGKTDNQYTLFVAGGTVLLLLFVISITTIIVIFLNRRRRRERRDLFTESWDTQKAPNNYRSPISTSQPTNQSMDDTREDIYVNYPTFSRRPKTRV

T3: CD96 (UniProt P40200)
T3 sequence (looked up): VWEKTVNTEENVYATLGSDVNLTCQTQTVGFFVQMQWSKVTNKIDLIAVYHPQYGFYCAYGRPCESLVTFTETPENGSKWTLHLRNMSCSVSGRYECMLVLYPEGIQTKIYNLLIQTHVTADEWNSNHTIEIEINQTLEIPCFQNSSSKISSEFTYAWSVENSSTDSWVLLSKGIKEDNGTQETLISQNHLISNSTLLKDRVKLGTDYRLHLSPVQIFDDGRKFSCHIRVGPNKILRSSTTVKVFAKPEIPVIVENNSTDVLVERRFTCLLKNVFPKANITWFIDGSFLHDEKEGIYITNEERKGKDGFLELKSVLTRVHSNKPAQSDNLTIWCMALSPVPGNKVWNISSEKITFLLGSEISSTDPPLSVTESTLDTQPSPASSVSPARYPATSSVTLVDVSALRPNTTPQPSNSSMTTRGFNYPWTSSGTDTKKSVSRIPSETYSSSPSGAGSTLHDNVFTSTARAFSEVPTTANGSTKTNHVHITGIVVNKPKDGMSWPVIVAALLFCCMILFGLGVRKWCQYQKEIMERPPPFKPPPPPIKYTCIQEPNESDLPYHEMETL

B1: variant CD80 IgV-Fc A12T/E24D/E35D/D46V/I61V/L72P/E95V (Fc fusion, not shown: a dimerising Fc or GST)
chain: VIHVTKEVKEVTTLSCGHNVSVEDLAQTRIYWQKDKKMVLTMMSGVMNIWPEYKNRTIFDVTNNLSIVILAPRPSDEGTYECVVLKYEKDAFKRVHLAEVTLSVKAD
B2: WT CD112-Fc ECD, Q92692 32-360 (Fc fusion, not shown: a dimerising Fc or GST)
chain: QDVRVQVLPEVRGQLGGTVELPCHLLPPVPGLYISLVTWQRPDAPANHQNVAAFHPKMGPSFPSPKPGSERLSFVSAKQSTGQDTEAELQDATLALHGLTVEDEGNYTCEFATFPKGSVRGMTWLRVIAKPKNQAEAQKVTFSQDPTTVALCISKEGRPPARISWLSSLDWEAKETQVSGTLAGTVTVTSRFTLVPSGRADGVTVTCKVEHESFEEPALIPVTLSVRYPPEVSISGYDDNWYLGRTDATLSCDVRSNPEPTGYDWSTTSGTFPTSAVAQGSQLVIHAVDSLFNTTFVCTVTNAVGMGRAEQVIFVRETPNTAGAGATGG
B3: PD-L2 I13V/H15Q/T47A/Q82R IgV-Fc (Fc fusion, not shown: a dimerising Fc or GST)
chain: LFTVTVPKELYIVEQGSNVTLECNFDTGSHVNLGAITASLQKVENDASPHRERATLLEEQLPLGKASFHIPQVQVRDEGQYRCIIIYGVAWDYKYLTLKVKA
B4: PD-L2 F2L/H15Q/D46E/T47A/Q72H/R76G/Q82R/V89D IgV-Fc (Fc fusion, not shown: a dimerising Fc or GST)
chain: LLTVTVPKELYIIEQGSNVTLECNFDTGSHVNLGAITASLQKVENEASPHRERATLLEEQLPLGKASFHIPHVQVGDEGQYRCIIIYGDAWDYKYLTLKVKA
B5: PD-L2 I13V/H15Q/V31A/N45S/Q82R/V89D IgV-Fc (Fc fusion, not shown: a dimerising Fc or GST)
chain: LFTVTVPKELYIVEQGSNVTLECNFDTGSHANLGAITASLQKVESDTSPHRERATLLEEQLPLGKASFHIPQVQVRDEGQYRCIIIYGDAWDYKYLTLKVKA
B6: PD-L2 I13V/H15Q/T47A/Q72H/R76G/I86T IgV-Fc (Fc fusion, not shown: a dimerising Fc or GST)
chain: LFTVTVPKELYIVEQGSNVTLECNFDTGSHVNLGAITASLQKVENDASPHRERATLLEEQLPLGKASFHIPHVQVGDEGQYQCIITYGVAWDYKYLTLKVKA
B7: PD-L2 H15Q/T47A/S67L/Q82R/V89D IgV-Fc (Fc fusion, not shown: a dimerising Fc or GST)
chain: LFTVTVPKELYIIEQGSNVTLECNFDTGSHVNLGAITASLQKVENDASPHRERATLLEEQLPLGKALFHIPQVQVRDEGQYRCIIIYGDAWDYKYLTLKVKA
B8: PD-L2 H15Q/N18D/T47A/Q72H/V73A/R76G/I86T/V89D IgV-Fc (Fc fusion, not shown: a dimerising Fc or GST)
chain: LFTVTVPKELYIIEQGSDVTLECNFDTGSHVNLGAITASLQKVENDASPHRERATLLEEQLPLGKASFHIPHAQVGDEGQYQCIITYGDAWDYKYLTLKVKA
B9: PD-L2 I13V/H15Q/T47A/E58G/S67L/Q82R/V89D IgV-Fc (Fc fusion, not shown: a dimerising Fc or GST)
chain: LFTVTVPKELYIVEQGSNVTLECNFDTGSHVNLGAITASLQKVENDASPHRERATLLGEQLPLGKALFHIPQVQVRDEGQYRCIIIYGDAWDYKYLTLKVKA
B10: PD-L2 H15Q/N24S/T47A/Q72H/R76G/V89D IgV-Fc (Fc fusion, not shown: a dimerising Fc or GST)
chain: LFTVTVPKELYIIEQGSNVTLECSFDTGSHVNLGAITASLQKVENDASPHRERATLLEEQLPLGKASFHIPHVQVGDEGQYQCIIIYGDAWDYKYLTLKVKA
B11: PD-L2 I13V/H15Q/T47A/H69L/R76G/V89D IgV-Fc (Fc fusion, not shown: a dimerising Fc or GST)
chain: LFTVTVPKELYIVEQGSNVTLECNFDTGSHVNLGAITASLQKVENDASPHRERATLLEEQLPLGKASFLIPQVQVGDEGQYQCIIIYGDAWDYKYLTLKVKA
B12: PD-L2 H15Q/T47A/S67L/R76G/Q82R/V89D IgV-Fc (Fc fusion, not shown: a dimerising Fc or GST)
chain: LFTVTVPKELYIIEQGSNVTLECNFDTGSHVNLGAITASLQKVENDASPHRERATLLEEQLPLGKALFHIPQVQVGDEGQYRCIIIYGDAWDYKYLTLKVKA
B13: PD-L2 I13V/H15Q/T47A/R76G/V89D IgV-Fc (Fc fusion, not shown: a dimerising Fc or GST)
chain: LFTVTVPKELYIVEQGSNVTLECNFDTGSHVNLGAITASLQKVENDASPHRERATLLEEQLPLGKASFHIPQVQVGDEGQYQCIIIYGDAWDYKYLTLKVKA
B14: PD-L2 H15Q/T47A/H69L/Q82R/V89D IgV-Fc (Fc fusion, not shown: a dimerising Fc or GST)
chain: LFTVTVPKELYIIEQGSNVTLECNFDTGSHVNLGAITASLQKVENDASPHRERATLLEEQLPLGKASFLIPQVQVRDEGQYRCIIIYGDAWDYKYLTLKVKA
B15: PD-L2 H15Q/S39I/E44D/Q72H/V75G/R76G/Q82R/V89D IgV-Fc (Fc fusion, not shown: a dimerising Fc or GST)
chain: LFTVTVPKELYIIEQGSNVTLECNFDTGSHVNLGAITAILQKVDNDTSPHRERATLLEEQLPLGKASFHIPHVQGGDEGQYRCIIIYGDAWDYKYLTLKVKA
B16: PD-L2 I13V/H15Q/Q72H/R76G/I86T IgV-Fc (Fc fusion, not shown: a dimerising Fc or GST)
chain: LFTVTVPKELYIVEQGSNVTLECNFDTGSHVNLGAITASLQKVENDTSPHRERATLLEEQLPLGKASFHIPHVQVGDEGQYQCIITYGVAWDYKYLTLKVKA
B17: PD-L2 I13V/H15Q/R76G/D77N/Q82R/V89D IgV-Fc (Fc fusion, not shown: a dimerising Fc or GST)
chain: LFTVTVPKELYIVEQGSNVTLECNFDTGSHVNLGAITASLQKVENDTSPHRERATLLEEQLPLGKASFHIPQVQVGNEGQYRCIIIYGDAWDYKYLTLKVKA
B18: PD-L2 I13V/H15Q/T37A/E44D/S48C/S67L/Q82R/V89D IgV-Fc (Fc fusion, not shown: a dimerising Fc or GST)
chain: LFTVTVPKELYIVEQGSNVTLECNFDTGSHVNLGAIAASLQKVDNDTCPHRERATLLEEQLPLGKALFHIPQVQVRDEGQYRCIIIYGDAWDYKYLTLKVKA
B19: PD-L2 I13V/H15Q/T47A/S67L/Q72H/R76G/Q82R/V89D IgV-Fc (Fc fusion, not shown: a dimerising Fc or GST)
chain: SEQLFTVTVPKELYIVEQGSNVTLECNFDTGSHVNLGAITASLQKVENDASPHRERATLLEEQLPLGKALFHIPHVQVGDEGQYRCIIIYGDAWDYKYLTLKVKA
B20: CD155 P18S/T45S/T61K/S65W/S67A/F91S/G111R IgV-Fc (Fc fusion, not shown: a dimerising Fc or GST)
chain: WPPPGTGDVVVQAPTQVSGFLGDSVTLPCYLQVPNMEVTHVSQLSWARHGESGSMAVFHQKQGPWYAESKRLEFVAARLGAELRNASLRMSGLRVEDEGNYTCLFVTFPQRSRSVDIWLRVL
B21: variant CD155 IgV-Fc G111R (Fc fusion, not shown: a dimerising Fc or GST)
chain: WPPPGTGDVVVQAPTQVPGFLGDSVTLPCYLQVPNMEVTHVSQLTWARHGESGSMAVFHQTQGPSYSESKRLEFVAARLGAELRNASLRMFGLRVEDEGNYTCLFVTFPQRSRSVDIWLRVL

One experiment deals with human PD-L1, full length, expressed on transfected HEK293 cells (human) (UniProt Q9NZQ7). As to the kind of experiment: flow cytometry, HEK293 cells transfected with human PD-L1.
human PD-L1, full length, expressed on transfected HEK293 cells (human), sequence (Q9NZQ7 19-290): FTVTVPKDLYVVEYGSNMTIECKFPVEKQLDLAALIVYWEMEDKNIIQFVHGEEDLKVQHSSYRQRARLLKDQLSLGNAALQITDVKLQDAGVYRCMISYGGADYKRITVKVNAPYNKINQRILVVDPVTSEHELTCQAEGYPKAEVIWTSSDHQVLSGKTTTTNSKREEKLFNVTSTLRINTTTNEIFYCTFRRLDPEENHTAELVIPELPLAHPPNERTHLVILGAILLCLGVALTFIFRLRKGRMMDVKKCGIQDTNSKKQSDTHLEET
Conditions: not given
(A flow cytometer gives signals particle by particle.)
Molecule B1 yielded an MFI at 22.2 nM of 1220 MFI.

The next experiment deals with T1, CD112R, Q6DKI7. As to the kind of experiment: flow cytometry, cells expressing CD112R, 20 nM. As to conditions: remark: other sources report otherwise.
B2 gave a Fold Increase to WT IgV of 0.75 fold and an MFI at 20 nM of 1250.

Another experiment deals with PD-1 (PDCD1) (Homo sapiens (Human)) (UniProt Q15116). As to the kind of experiment: cell-based or functional assay.
PD-1 (PDCD1) (Homo sapiens (Human)), sequence (Q15116 21-288): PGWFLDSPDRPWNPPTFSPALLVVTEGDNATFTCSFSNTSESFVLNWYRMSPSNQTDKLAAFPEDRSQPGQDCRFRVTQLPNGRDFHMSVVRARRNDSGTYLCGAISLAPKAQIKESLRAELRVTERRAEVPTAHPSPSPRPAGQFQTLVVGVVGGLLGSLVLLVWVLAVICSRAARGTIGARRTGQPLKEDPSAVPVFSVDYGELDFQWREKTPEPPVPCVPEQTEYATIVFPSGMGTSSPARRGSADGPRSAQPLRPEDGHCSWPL
Conditions: not given
Regarding B3, the IFN gamma levels pg/mL (MLR) amounted to 1700 pg/mL.

For the molecule B4, the IFN gamma levels pg/mL (MLR) is 1170 pg/mL.

The molecule B5 registered an IFN gamma levels pg/mL (MLR) of 1720 pg/mL.

B6 yielded an IFN gamma levels pg/mL (MLR) of 1090 pg/mL.

In turn, B7 yielded an IFN gamma levels pg/mL (MLR) of 1200 pg/mL.

B8 registered an IFN gamma levels pg/mL (MLR) of 1070 pg/mL.

As for B9, the IFN gamma levels pg/mL (MLR) is 836 pg/mL.

Take B10: the IFN gamma levels pg/mL (MLR) was 1090 pg/mL.

As to B11, the IFN gamma levels pg/mL (MLR) amounted to 1080 pg/mL.

Consider B12, for which the IFN gamma levels pg/mL (MLR) worked out at 1100 pg/mL.

In turn, B13 came in with an IFN gamma levels pg/mL (MLR) of 1250 pg/mL.

For B14, the IFN gamma levels pg/mL (MLR) worked out at 1730 pg/mL.

In turn, B15 came in with an IFN gamma levels pg/mL (MLR) of 941 pg/mL.

The molecule B16 showed an IFN gamma levels pg/mL (MLR) of 1220 pg/mL.

Consider B17, for which the IFN gamma levels pg/mL (MLR) amounted to 1190 pg/mL.

Regarding B18, the IFN gamma levels pg/mL (MLR) was found to be 1750 pg/mL.

Take B19: the Fold increase over wildtype PD-L2 IgV-Fc (IFN gamma, MLR) came out at 1.13 fold and the IFN gamma levels pg/mL (MLR) turned out to be 1560 pg/mL.

Another experiment addresses T2, CD226 (Homo sapiens (Human)). As to the kind of experiment: flow cytometry on CD226-expressing cells, Fc fusion at 100 nM.
Conditions: not given
The molecule B20 returned an MFI at 100 nM of 2110 MFI.

A further experiment concerns the target T3, CD96. As to the kind of experiment: flow cytometry, Fc fusion at 100 nM, CD96-transfected cells.
Conditions: not given
Take B21: the MFI at 100 nM worked out at 3320 MFI.

In a further experiment the target is T3, CD96. Nature of the experiment: flow cytometry, MFI ratio to WT CD155 ECD-Fc, CD96-transfected cells.
Conditions: not given
In the case of B21, the Fold ↑ to WT ECD amounted to 0.03 fold.
